Experimental data as given in patent US12460006B2, “Antibodies against integrin alpha 11 beta 1” (Momenta Pharmaceuticals, Inc., priority 2019, dated 2025).

T1: α11β1 expressed on the surface of CHO-K1 cells (Homo sapiens, UniProt Q9UKX5)
T1 construct: expressed in transfected cells; host or cells: CHO-K1
T1 sequence (Q9UKX5 23-1188): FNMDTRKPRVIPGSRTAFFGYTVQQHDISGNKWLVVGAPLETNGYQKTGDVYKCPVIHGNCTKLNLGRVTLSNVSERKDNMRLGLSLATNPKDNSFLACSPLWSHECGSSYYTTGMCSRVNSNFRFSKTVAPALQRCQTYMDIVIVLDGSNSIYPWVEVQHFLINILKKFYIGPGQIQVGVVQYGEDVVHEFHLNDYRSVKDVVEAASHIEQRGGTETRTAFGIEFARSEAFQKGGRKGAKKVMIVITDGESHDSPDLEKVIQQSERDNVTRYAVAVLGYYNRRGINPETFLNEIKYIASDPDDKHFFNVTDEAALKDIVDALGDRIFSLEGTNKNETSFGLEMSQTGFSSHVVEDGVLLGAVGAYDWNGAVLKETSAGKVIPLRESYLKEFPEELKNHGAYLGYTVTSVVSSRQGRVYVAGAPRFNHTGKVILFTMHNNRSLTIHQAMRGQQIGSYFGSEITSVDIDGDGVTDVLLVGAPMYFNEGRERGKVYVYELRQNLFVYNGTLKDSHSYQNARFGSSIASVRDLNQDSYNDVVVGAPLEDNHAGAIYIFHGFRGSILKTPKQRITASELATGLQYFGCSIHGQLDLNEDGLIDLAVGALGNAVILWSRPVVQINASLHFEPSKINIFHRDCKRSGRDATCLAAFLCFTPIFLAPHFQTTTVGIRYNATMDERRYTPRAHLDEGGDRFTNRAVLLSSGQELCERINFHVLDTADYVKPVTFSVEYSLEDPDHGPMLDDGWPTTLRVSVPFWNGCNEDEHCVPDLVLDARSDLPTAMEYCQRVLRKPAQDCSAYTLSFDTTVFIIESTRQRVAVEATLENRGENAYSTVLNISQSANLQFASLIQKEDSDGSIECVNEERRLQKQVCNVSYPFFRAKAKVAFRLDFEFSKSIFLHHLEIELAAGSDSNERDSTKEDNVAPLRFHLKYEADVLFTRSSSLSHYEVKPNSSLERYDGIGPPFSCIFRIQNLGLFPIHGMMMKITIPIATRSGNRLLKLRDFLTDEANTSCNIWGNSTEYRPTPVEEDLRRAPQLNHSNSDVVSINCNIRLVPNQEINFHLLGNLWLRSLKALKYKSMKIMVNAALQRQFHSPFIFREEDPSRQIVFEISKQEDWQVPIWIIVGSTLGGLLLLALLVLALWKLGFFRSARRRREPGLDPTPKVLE

B1: 6G4: rabbit anti-α11β1 mAb; heavy chain SEQ ID NO: 181, light chain SEQ ID NO: 182 (antibody)
heavy: METGLRWLLLVAVLKGVQCQQQLEESGGGLVKPGGTLTLTCKASGVALNPYYYMCWVRQAPGKGLEWIACVDADSSGSTYYASWAKGRFTISKTSSTTVTLKMTSLTAADTATYFCARESVDYSSVGIGYVHGTDGLWGPGTLVTVSSGQPKAPSVFPLAPCCGDTPSSTVTLGCLVKGYLPEPVTVTWNSGTLTNGVRTFPSVRQSSGLYSLSSVVSVTSSSQPVTCNVAHPATNTKVDKTVAPSTCSKPMCPPPELPGGPSVFIFPPKPKDTLMISRTPEVTCVVVDVSQDDPEVQFTWYINNEQVRTARPPLREQQFNSTIRVVSTLPIAHQDWLRGKEFKCKVHNKALPAPIEKTISKARGQPLEPKVYTMGPPREELSSRSVSLTCMINGFYPSDISVEWEKNGKAEDNYKTTPTVLDSDGSYFLYSKLSVPTSEWQRGDVFTCSVMHEALHNHYTQKSISRSPGK
light: MDTRAPTQLLGLLLLWLPGARCADIVVTQTPSSVSAAVGGTVTIKCQASQSISNYFSWYQQKPGQPPKLLIYRASTLASGVPSRFKGSGSGTEFTLTISDLECADAATYYCQCTYGRSNSNFFYGFGGGTEVVVKGDPVAPTVLIFPPAADQVATGTVTIVCVANKYFPDVTVTWEVDGTTQTTGIENSKTPQNSADCTYNLSSTLTLTSTQYNSHKEYTCKVTQGTTSVVQSFNRGDC
B2: 6F9: rabbit anti-α11β1 mAb; heavy chain SEQ ID NO: 183, light chain SEQ ID NO: 184 (antibody)
heavy: METGLRWLLLVAVLKGVQCQSLEESGGDLVKPGASLTLTCTASGSSFSSTYWNCWVRQAPGKGLEWIACINAGSGTTYYASWAKGRFTVSKTSSTTVTLQMTSLTAADTATYFCTRDSDGRFSSGYYFNLWGPGTLVTVSSGQPKAPSVFPLAPCCGDTPSSTVTLGCLVKGYLPEPVTVTWNSGTLTNGVRTFPSVRQSSGLYSLSSVVSVTSSSQPVTCNVAHPATNTKVDKTVAPSTCSKPMCPPPELPGGPSVFIFPPKPKDTLMISRTPEVTCVVVDVSQDDPEVQFTWYINNEQVRTARPPLREQQFNSTIRVVSTLPIAHQDWLRGKEFKCKVHNKALPAPIEKTISKARGQPLEPKVYTMGPPREELSSRSVSLTCMINGFYPSDISVEWEKNGKAEDNYKTTPTVLDSDGSYFLYSKLSVPTSEWQRGDVFTCSVMHEALHNHYTQKSISRSPGK
light: MDTRAPTQLLGLLLLWLPGATFAQVLTQTASPVSAAVGGTVTINCQSSQSVYDNNWLAWYQQKPGQPPKLLIDDASKLTSGVSSRFKGSGSGTQFTLTISGVQCDDAATYYCQGAYYSSGWYWAFGGGTEVVVKGDPVAPTVLIFPPAADQVATGTVTIVCVANKYFPDVTVTWEVDGTTQTTGIENSKTPQNSADCTYNLSSTLTLTSTQYNSHKEYTCKVTQGTTSVVQSFNRGDC
B3: 4E1: rabbit anti-α11β1 mAb; heavy chain SEQ ID NO: 195, light chain SEQ ID NO: 196 (antibody)
heavy: METGLRWLLLVAVLKGVQCQSLEESGGDLVKPGTSLTLSCTASGFSFGSYYYMCWVRQAPGKGLEWIACIDVGSSGDTYYASWVNGRFTISKTSSTTVTLQMTSLTAADTATYFCARDDTAAGGFGNLELWGPGTLVTVSSGQPKAPSVFPLAPCCGDTPSSTVTLGCLVKGYLPEPVTVTWNSGTLTNGVRTFPSVRQSSGLYSLSSVVSVTSSSQPVTCNVAHPATNTKVDKTVAPSTCSKPMCPPPELPGGPSVFIFPPKPKDTLMISRTPEVTCVVVDVSQDDPEVQFTWYINNEQVRTARPPLREQQFNSTIRVVSTLPIAHQDWLRGKEFKCKVHNKALPAPIEKTISKARGQPLEPKVYTMGPPREELSSRSVSLTCMINGFYPSDISVEWEKNGKAEDNYKTTPTVLDSDGSYFLYSKLSVPTSEWQRGDVFTCSVMHEALHNHYTQKSISRSPGK
light: MDTRAPTQLLGLLLLWLPGARCAFELTQTPSSVSEPVGGTVTIKCQASQSIYSYFSWYQQKPGQPPKRLIYQASTLASGVPSRFKGSGSGTDFTLTISDLECADAATYYCQNNYGRGSGSYFFGFGGGTEVVVKGDPVAPTVLIFPPAADQVATGTVTIVCVANKYFPDVTVTWEVDGTTQTTGIENSKTPQNSADCTYNLSSTLTLTSTQYNSHKEYTCKVTQGTTSVVQSFNRGDC

How the values were obtained:
mouse α11β1 = mouse α11β1 (Mus musculus, UniProt P61622); assay: ELISA binding to recombinant mouse α11β1; conditions: binding Yes/No
Method in brief: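 First, wells were coated overnight at 4° C with 0.25 μg/mL recombinant α11β1 from human or mouse. Next came BSA blocking and a range of antibody concentrations for 1 h at room temperature. Finally, biotin anti-IgG, streptavidin-HRP and TMB development gave the 450 nm signal.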

[1] = biological target: T1, α11β1 expressed on the surface of CHO-K1 cells; assay: FACS antibody binding to CHO-K1 cells expressing human α11; conditions: binding Yes/No
Method in brief: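 Wild-type or human α11-transfected CHO-K1 cells (endogenous β1) were incubated with antibody at varied concentrations for 30 min at 4° C, then secondary antibody (1:100) 30 min at 4° C. Cells were PFA-fixed and read by flow cytometry; binding EC50 estimated from FACS data.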

[2] = test system: Human Pulmonary Fibroblasts; assay: Fibroblast-to-Myofibroblasts Transition (FMT), αSMA expression; format: cell-based; conditions: Yes/No
Method in brief: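 Cells seeded at 20,000/well, serum-starved 24 h, then given TGFβ-1 with or without anti-α11 antibodies for 48 h; polyclonal anti-α11 and isotype IgG served as controls. Fixed, permeabilized cells were stained for αSMA and analysed by flow cytometry (single-cell gMFI). Values are normalized to untreated control as % inhibition.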

Chain of mouse α11β1 (P61622 23-1141 limits assumed): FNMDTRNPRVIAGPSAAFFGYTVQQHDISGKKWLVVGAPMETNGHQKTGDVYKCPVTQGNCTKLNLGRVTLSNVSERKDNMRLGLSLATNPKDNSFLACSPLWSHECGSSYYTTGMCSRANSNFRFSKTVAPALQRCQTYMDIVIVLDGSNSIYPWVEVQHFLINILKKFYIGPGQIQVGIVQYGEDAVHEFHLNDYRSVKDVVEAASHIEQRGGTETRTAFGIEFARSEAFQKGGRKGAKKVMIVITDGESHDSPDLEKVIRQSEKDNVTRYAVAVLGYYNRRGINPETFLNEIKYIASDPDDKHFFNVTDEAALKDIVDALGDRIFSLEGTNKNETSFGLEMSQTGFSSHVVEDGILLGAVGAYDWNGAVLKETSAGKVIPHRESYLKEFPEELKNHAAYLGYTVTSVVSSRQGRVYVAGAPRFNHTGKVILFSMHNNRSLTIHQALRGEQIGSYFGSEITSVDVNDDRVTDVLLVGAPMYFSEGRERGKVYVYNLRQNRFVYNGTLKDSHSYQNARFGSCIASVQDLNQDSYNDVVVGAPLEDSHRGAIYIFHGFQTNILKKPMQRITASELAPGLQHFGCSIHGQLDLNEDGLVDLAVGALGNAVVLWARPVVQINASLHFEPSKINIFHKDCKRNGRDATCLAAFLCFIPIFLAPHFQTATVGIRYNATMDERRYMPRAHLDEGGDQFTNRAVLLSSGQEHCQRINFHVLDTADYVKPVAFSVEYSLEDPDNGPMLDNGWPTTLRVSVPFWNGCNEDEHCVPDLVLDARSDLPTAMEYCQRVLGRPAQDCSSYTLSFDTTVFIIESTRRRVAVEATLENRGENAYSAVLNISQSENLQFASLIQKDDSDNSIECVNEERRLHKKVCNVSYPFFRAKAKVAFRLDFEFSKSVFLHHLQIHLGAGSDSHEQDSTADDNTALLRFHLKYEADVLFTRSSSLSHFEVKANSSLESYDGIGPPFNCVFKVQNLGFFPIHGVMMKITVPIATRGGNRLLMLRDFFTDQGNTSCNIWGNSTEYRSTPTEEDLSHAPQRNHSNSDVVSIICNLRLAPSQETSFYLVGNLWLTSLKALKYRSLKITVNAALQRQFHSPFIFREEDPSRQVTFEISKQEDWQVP
Chain of mouse α11β1 (P09055 21-728 partner limits assumed): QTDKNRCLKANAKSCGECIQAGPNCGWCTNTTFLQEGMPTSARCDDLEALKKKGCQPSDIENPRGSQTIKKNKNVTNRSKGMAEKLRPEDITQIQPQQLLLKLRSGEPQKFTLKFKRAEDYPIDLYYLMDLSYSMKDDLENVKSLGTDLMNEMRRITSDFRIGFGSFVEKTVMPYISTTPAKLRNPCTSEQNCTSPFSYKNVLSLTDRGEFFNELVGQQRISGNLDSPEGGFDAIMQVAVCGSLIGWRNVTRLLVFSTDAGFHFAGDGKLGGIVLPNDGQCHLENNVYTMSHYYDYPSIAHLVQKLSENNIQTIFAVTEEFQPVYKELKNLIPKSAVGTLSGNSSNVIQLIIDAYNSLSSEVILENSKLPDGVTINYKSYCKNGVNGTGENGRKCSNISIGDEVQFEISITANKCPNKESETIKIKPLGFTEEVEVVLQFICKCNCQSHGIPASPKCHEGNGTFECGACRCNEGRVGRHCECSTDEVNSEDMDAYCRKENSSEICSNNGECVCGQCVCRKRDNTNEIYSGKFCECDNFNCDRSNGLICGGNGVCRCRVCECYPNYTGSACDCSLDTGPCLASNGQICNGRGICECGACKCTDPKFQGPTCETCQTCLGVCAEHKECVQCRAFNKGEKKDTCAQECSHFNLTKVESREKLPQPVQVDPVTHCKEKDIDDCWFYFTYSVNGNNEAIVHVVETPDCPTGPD

Row | Molecule | Murine α11β1 ELISA (mouse α11β1) | CHO-K1 FACS [1] | Inhibition of FMT [2]
1 | B1 | No | Yes | No
2 | B2 | No | Yes | No
3 | B3 | No | Yes | No
